Reference: the RNAGym collection of RNA variant scans (doi:10.1073/pnas.2313332121)

B1: TPR t1 (parent)
chain: GACCAAUCUGCCCUCAGAGCUCGAGAACAUCUUCGGAUGCAGAGGAGGCAGGCUUCGGUGGCGCGAUAGCGCCAACGUCCUCAACCUCCAAUGCAUCCCACCACAUGAUGAUGCCUGAAGAGCCUUGGUUUUUUG

Variants of: B1
Assay: polymerase ribozyme fitness, log enrichment relative to wild type (log ratio); higher = more active; in vitro selection for triplet polymerase activity
Outline: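 The heterodimeric triplet polymerase ribozyme's subunits were each mutagenized into PCR-built libraries and transcribed. Every library was selected once, in triplicate, by annealing with a biotinylated primer, the partner subunit and triplets, incubating frozen at −7 °C, gel-excising extended constructs, capturing on streptavidin beads and running RT-PCR. Input and output libraries were Illumina-sequenced, with genotypes kept only at ≥10 input reads and ≥1 read per output. Fitness, from inverse-variance-weighted replicate averages, is the base-2 logarithm of genotype enrichment over wild-type enrichment.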

Point of comparison: GACCAAUCUGCCCUCAGAGCUCGAGAACAUCUUCGGAUGCAGAGGAGGCAGGCUUCGGUGCCGCGAUAGCGCCAACGUCCUCAACCUCCAAUGCAUCCCACCACAUGAUGAUGCCUGAAGAGCCUUGUUUUUUUG [G61C G128U], “polymerase ribozyme fitness (log ratio)” value -3.46. Against it:
- GACCAAUCUGCCCUCAGAGCUCGAGAACAUCUUCGGAUGCAGAGGAGGCAGGCUUCGGUGCCGCGAUAGCGCCAACGUCCUCAACCUCCAAUGCAUCCCACCACAUGAUGAUGCCUGAAAAGCCUUGGUUUUUUG [G61C G120A] — higher, 0.0588
- GACCAAUCUGCCCUCAGAGCUCGAGAACAUCUUCGGAUGCAGAGGAGGCAGGCUUCGGUGCCGCGAUAGCGCCAACGUACUCAACCUCCAAUGCGUCCCACCACAUGAUGAUGCCUGAAGAGCCUUAGUUUUUUG [G61C C79A A95G G127A] — within 0.2 log units, -3.63
- GACCAAUCUGCCCUCAGAGCUCGAGAACAUCUUCGGAUGCAGAGGAGGCAGGCUUCGGUGCCGCGAUAGCGCCAACGUCCUCAACCUCCAAUGCAUCCCACCACACGAUGAUGCCUGAAGAGCCUUGGUUUUUUG [G61C U106C] — higher, -2.89
- GACCAAUCUGCCCUCAGAGCUCGAGAACAUCUUCGGAUGCAGAGGAGGCAGGCUUCGGUGCCGCGAUAGCGCCAACGUCCUCUACCUCCAAUGCAUCCCACCACAUGAUGAUCCCUGAAUAGCCUUGGUUUAUUG [G61C A83U G113C G120U U132A] — lower, -4.78
- GACCAAUCUGCCCUCAGAGCUCGAGAACAUCUUCGGAUGCAGAGGAGGCAGGCUUCGGUGCCGCGAUAGCGCCAACGUUCUCAACCUCCAAUGCAUCCCACCACAUGAUGAUGCCUAAAGAGCCUUGAUUUUUUG [G61C C79U G117A G128A] — lower, -4.76
- GACCAAUCUGCCCUCAGAGCUCGAGAACAUCUUCGGAUGCAGAGGAGGCAGGCUUCGGUGCCGCGAUAGCGCCAACGCCCUCAACCUCCAAUGCAUCCCACCACAUGAUGAUGCCUGAAGAGCCUUGGUUUUAUG [G61C U78C U133A] — within 0.2 log units, -3.51
- GACCAAUCUGCCCUCAGAGCUCGAGAACAUCUUCGGAUGCAGAGGAGGCAGGCUUCGGUGCCGCGAUAGCGCCAACGGCCUCAACCUCCAAUGCAUCCCACCACAUGAUGAUGCCUGAAGAGCCUUGGUUUUUUG [G61C U78G] — lower, -4.7
- GACCAAUCUGCCCUCAGAGCUCGAGAACAUCUUCGGAUGCAGAGGAGGCAGGCUUCGGUGCCGCGAUAGCGCCAACGUCCUCAACCACCAAUGCAUCCCACAACAUGAUGAUGCCUGAAGAGCCUUGGUUUUUUG [G61C U87A C102A] — lower, -5.28
- GACCAAUCUGCCCUCAGAGCUCGAGAACAUCUUCGGAUGCAGAGGAGGCAGGCUUCGGUGCCGCGAUAGCGCCAACGUCCUCAACCUCCAAUGCAUCCCACCACAUGAUGAUGCCUGAAGAGCCUUGAUUUUUUG [G61C G128A] — within 0.2 log units, -3.41
- GACCAAUCUGCCCUCAGAGCUCGAGAACAUCUUCGGAUGCAGAGGAGGCAGGCUUCGGUGCCGCGAUAGCGCCUACGUCCUCAACCUCCAAUGCAUCCCACCACAUGAUGAUGCCUGAAGAGCCUUGGUUUUUUG [G61C A74U] — lower, -4.43
- GACCAAUCUGCCCUCAGAGCUCGAGAACAUCUUCGGAUGCAGAGGAGGCAGGCUUCGGUGUCGCGCUAGCGCCAACGUCCUCAACCUCCAAUGCAUCCCACCACAUGAUGAUGACUGAAGAGCCUUGGUUUUUUG [G61U A66C C114A] — higher, -2.88
- GACCAAUCUGCCCUCAGAGCUCGAGAACAUCUUCGGAUGCAGAGGAGGCAGGCUUCGGUGACGCGAAAGCGCCAACGUCCUCAACCUCCAAUGCAUCCCACCACAUGAUGAUGCCUGAAGAGCCUUGGUUUUUUG [G61A U67A] — lower, -6.59
- GACCAAUCUGCCCUCAGAGCUCGAGAACAUCUUCGGAUGCAGAGGAGGCAGGCUUCGGUGCCGCGAUAGCGCCAACGUCCUCAACCUCCAAUGCAUCCCACCACAUAAUGAUGCCUGAAGAGCCUUGGUUUUUUG [G61C G107A] — lower, -6.66
- GACCAAUCUGCCCUCAGAGCUCGAGAACAUCUUCGGAUGCAGAGGAGGCAGGCUUCGGUGCCGCGAUAGCGCCAACGUCCUCAACCUCCAAUGCAUCCCACCACAUGAUGAUGCCUGAAGAACCUUGGUUUUUUG [G61C G122A] — higher, -2.5
- GACCAAUCUGCCCUCAGAGCUCGAGAACAUCUUCGGAUGCAGAGGAGGCAGGCUUCGGUGCCGCGAUAGCGCCAACGUCCUCAACCUCAAAUGCAUCCCACCACAUGAUGAUGCCUGAAGGGCCUUGGUUUUUUG [G61C C89A A121G] — higher, -2.4
- GACCAAUCUGCCCUCAGAGCUCGAGAACAUCUUCGGAUGCAGAGGAGGCAGGCUUCGGUGCCGCGAUAGCGCCAACGUCCUCAUCCUCCAAUGCAUCCCACCACAUGAUGAUGCCUGAAGAGCCUUGGUUUUUUG [G61C A84U] — higher, -1.95
- GACCAAUCUGCCCUCAGAGCUCGAGAACAUCUUCGGAUGCAGAGGAGGCAGGCUUCGGUGCCGCGCUAGCGCCAACGUCCUCAACCUCCAAUGCAUCCCACCACAUGAUGAUGCCUGAAGAGCCUUGGUUUUUUU [G61C A66C G135U] — lower, -4.47
- GACCAAUCUGCCCUCAGAGCUCGAGAACAUCUUCGGAUGCAGAGGAGGCAGGCUUCGGUGCCGCGUUAGCGCCAACGUCCUCAACCUCCAAUGCAUCCCACCACAUGAUGAUGCCUGAAGAGCCUUGGUUUUUUG [G61C A66U] — higher, -0.911
- GACCAAUCUGCCCUCAGAGCUCGAGAACAUCUUCGGAUGCAGAGGAGGCAGGCUUCGGUGCCGCGAUAGCGCCAACGUCCUCAACCUCCAAUGCAUCCCACCACAUGAUGGUGCCUGAAGAGCCUUGGUUUUUUG [G61C A111G] — higher, -0.983
- GACCAAUCUGCCCUCAGAGCUCGAGAACAUCUUCGGAUGCAGAGGAGGCAGGCUUCGGUGCCGCGAUAGCGCCAACGUCCUCAACCUCCAAUGCAUCCCACCACAUGAUGCUGCCUGAAGAGCCUUGGUUUUUUG [G61C A111C] — higher, -1.98
- GACCAAUCUGCCCUCAGAGCUCGAGAACAUCUUCGGAUGCAGAGGAGGCAGGCUUCGGUGCCGCGAUAGCGCCAACGUCCUCAACCUCCAAUGCAUCCCACCACAUGAUGAUGCCUGAAGAGACUUGGUUUUUUG [G61C C123A] — higher, -0.578
- GACCAAUCUGCCCUCAGAGCUCGAGAACAUCUUCGGAUGCAGAGGAGGCAGGCUUCGGUGCCGCGAUAGCGCCAACGACCUCAACCUCCAAUACAACCCACCACAUGAUGAUGCCUGAAGAGCCUUGGUUUUUUG [G61C U78A G93A U96A] — higher, -1.93
- GACCAAUCUGCCCUCAGAGCUCGAGAACAUCUUCGGAUGCAGAGGAGGCAGGCUUCGGUGCCGCGAUAGCGCCAACGUCCUCAACCUUCAAUGCAUCCCACCACAUGAUGAUGCCUGAAGAGCCUUGGUUUUUUG [G61C C88U] — higher, -1.5
- GACCAAUCUGCCCUCAGAGCUCGAGAACAUCUUCGGAUGCAGAGGAGGCAGGCUUCGGUGACGCGAUAGCGCCAACGUCCUCAACCCCCAAUGCAUCCCACCACAUGAUGAUGCCUGAAGAGCCUUGGUUUUUUG [G61A U87C] — higher, -0.201
- GACCAAUCUGCCCUCAGAGCUCGAGAACAUCUUCGGAUGCAGAGGAGGCAGGCUUCGGUGACGCGAUAGCGCCAACGGCCUCAACCUCCAAUGCAUCCCACCACAUGAUGAUGCCUGAAGAGACUUGGUUUUAUG [G61A U78G C123A U133A] — higher, 0.482
- GACCAAUCUGCCCUCAGAGCUCGAGAACAUCUUCGGAUGCAGAGGAGGCAGGCUUCGGUGCCGCGAUAGCGCCAACGUCCUCAACCUUCCAUGCAUCCCACCACAUGAUUAUGCCUGAAGAGCCUUGGUUUUUUG [G61C C88U A90C G110U] — lower, -5.87
- GACCAAUCUGCCCUCAGAGCUCGAGAACAUCUUCGGAUGCAGAGGAGGCAGGCUUCGGUGCCGCGAUAGCGCCAACGUCCUCAAUCUCCAAUGCAUCCCACCACAUGAUGAUGCCUGAAGAGCCUUGGUUUUUUG [G61C C85U] — higher, -1.81
- GACCAAUCUGCCCUCAGAGCUCGAGAACAUCUUCGGAUGCAGAGGAGGCAGGCUUCGGUGACGCGAUAGCGCCAACGUCCUCAACCUCCAAUGCAUCCCACCACAUGAUGAUGCCUGAAGAGCCUUGGGAUUUUG [G61A U129G U130A] — higher, -2.53
- GACCAAUCUGCCCUCAGAGCUCGAGAACAUCUUCGGAUGCAGAGGAGGCAGGCUUCGGUGCCGGGAUAGCGCCAACGUCCUCAACCUCCAAUGCAUCCCACCACAUGAUGCUGCCUGAAGAGCCUUGGUUUUUUG [G61C C64G A111C] — lower, -6.11
- GACCAAUCUGCCCUCAGAGCUCGAGAACAUCUUCGGAUGCAGAGGAGGCAGGCUUCGGUGACGCGAUAGCGCCAACGUCCUCAACCUCCAAUGCAUCCCACCACAUGAUGACGCCUGAAGAGCCUUGGAUUUUUG [G61A U112C U129A] — higher, 1.39
- GACCAAUCUGCCCUCAGAGCUCGAGAACAUCUUCGGAUGCAGAGGAGGCAGGCUUCGGUGACGCGAUAGCGCCAACGUCCUCAACCUCCAACGCAUCCCACCACAUGAUGAUGCCUGAAGAGCCUUGGUUUUUUG [G61A U92C] — higher, -0.505
- GACCAAUCUGCCCUCAGAGCUCGAGAACAUCUUCGGAUGCAGAGGAGGCAGGCUUCGGUGCCGCGAUAGCGCCAACGUCCUCAACCUCCAAUGCAUCCCACCACAUGAUGAUGACUGAAGAGCCUUGGUUUUUUG [G61C C114A] — higher, -2.18
- GACCAAUCUGCCCUCAGAGCUCGAGAACAUCUUCGGAUGCAGAGGAGGCAGGCUUCGGUGUCGCGCUAGCGCCAACGUCCUCAACCUCCAAUGCAUCCCACCACAUGAUGAUGCCUGAAGAGCCUUGGUUUUUUG [G61U A66C] — higher, -3.18
- GACCAAUCUGCCCUCAGAGCUCGAGAACAUCUUCGGAUGCAGAGGAGGCAGGCUUCGGUGCCGCGAUAGCGCCAACGUCCUCAACCUCCAAUGCAUCCCACCACAUGAUGAUGCCUAAAGAGCCUUGGUUUUUUG [G61C G117A] — higher, -2.2
- GACCAAUCUGCCCUCAGAGCUCGAGAACAUCUUCGGAUGCAGAGGAGGCAGGCUUCGGUGCCGCGAUAGCGCCAACGUCCUCAACCACCAAUGCAUCCCACCACAUGAUGAUGCCUGAAGAGCCUUGGUUUUUUG [G61C U87A] — higher, -1.83
- GACCAAUCUGCCCUCAGAGCUCGAGAACAUCUUCGGAUGCAGAGGAGGCAGGCUUCGGUGACGCGAUAGCGCCAACGUCCUCAACCUCCAAUGCAUCCCACCACAUGAUGAUGCCGGAAGUGCCUUGGUUUUUUG [G61A U116G A121U] — higher, 0.807
- GACCAAUCUGCCCUCAGAGCUCGAGAACAUCUUCGGAUGCAGAGGAGGCAGGCUUCGGUGCCGCGAUAGCGCCAACGUCCUCAACCUCAAAUGCAUCCCACCACAUGAUGAUGCCUGAAGAGCCUUGGUUUUUUG [G61C C89A] — within 0.2 log units, -3.5
- GACCAAUCUGCCCUCAGAGCUCGAGAACAUCUUCGGAUGCAGAGGAGGCAGGCUUCGGUGCCGCGAUAGCGCCAACGUCCUCAACCUCCAAUGCAUCCCAGCACAUGAUGACGCCUGAAGAGCCUUGGUUUUUUG [G61C C101G U112C] — higher, -2.46
- GACCAAUCUGCCCUCAGAGCUCGAGAACAUCUUCGGAUGCAGAGGAGGCAGGCUUCGGUGCCGCGAUAGCGCCAACGUCCUCAACAUCCAAUGCAUCCCACCACAUGAUGAUGCCUGAAGAGCCUUGGUUUUUUG [G61C C86A] — higher, -2.15
- GACCAAUCUGCCCUCAGAGCUCGAGAACAUCUUCGGAUGCAGAGGAGGCAGGCUUCGGUGACGCGAUAGCGCCAACGUCCUCAACCUCCAAUGCAUCCCACCACAGGAUGAUGUCUGAAGAGCCUUGGUUUUUUG [G61A U106G C114U] — higher, -3.24
- GACCAAUCUGCCCUCAGAGCUCGAGAACAUCUUCGGAUGCAGAGGAGGCAGGCUUCGGUGCCGCGAUAGCGCCAACGUCCUCAACCUCCAAUGCAUCCCACCACAUGAUGAUGCCUGAAGAGCCUUGGAUUUUUG [G61C U129A] — within 0.2 log units, -3.33
